Source: article PMC5444442, “Flagellin peptide flg22 gains access to long-distance trafficking in Arabidopsis via its receptor, FLS2” (Journal of Experimental Botany, 2017)
Peptide text beside a SMILES is read from it. * marks the point of attachment. 5TAMRA = CN(C)c1ccc2c(c1)Oc1cc(N(C)C)ccc1C21OC(=O)c2cc(C(=O)*)ccc21; 5FAM = O=C1OC2(c3ccc(O)cc3Oc3cc(O)ccc32)c2ccc(C(=O)*)cc21; Cbz = O=C(OCc1ccccc1)*

Tests used:
Arabidopsis plants [1] = experiment: Long-distance transport after surface application of fluorescent peptide; type: in vivo, Arabidopsis thaliana; conditions: 1 d
Experimental: We applied 10–20 μl of 5 μM TAMRA–flg22 (without or with inhibitors: 50 μM MG132 or 50 mM BDM) to a filter paper disc placed on the adaxial side of one leaf of in vitro-grown Arabidopsis plants and distal tissues were imaged by confocal microscopy after 1 d. For experiments with mixed peptides, 5 μM TAMRA–flg22 + 10 μM FAM–scrambled peptides were used.
(§1) [^14C]sucrose radioactivity was quantified in a scintillation counter.

Arabidopsis leaf discs = experiment: Subcellular localization, uptake and accumulation of flg22 in leaf discs; type: cell-based, Arabidopsis thaliana; conditions: for initial (up to 1.5 h) uptake/binding: leaf discs floated on 5 μM peptide, confocal fluorescence; for number of foci overlapping with FM4-64 / total number of green (Ff22) fluorescent foci: 18 picture areas (20 μm × 20 μm); for non-specific uptake in presence of active flg22: Col leaf discs floated overnight on 2 μM FAM–scrambled peptide or 2 μM fluorescein mixed with 1 μM TAMRA–flg22 or 2 μM flg22, n≥8
Experimental: Leaf discs were floated (abaxial side down) on 1–5 μM TAMRA–flg22 or 5–10 μM FAM–flg22 solution (in water) at room temperature for the indicated time (lower concentrations were used for overnight treatments). Inhibitors that affect endocytosis, MG132 (Sigma-Aldrich, 50 μM) or 2,3-butanedione monoxime (BDM; Sigma-Aldrich, 50 mM) were added at the same time as the peptides. FM4-64 (Invitrogen, 6–8 μM) or 2′,7′-bis-(2-carboxyethyl)-5-(and-6)-carboxyfluorescein (BCECF)-AM (cleaved by an endogenous plant esterase to BCECF, Invitrogen, 20–40 μM) mixed with peptide solution was vacuum infiltrated for 2 min into leaf discs ([Kang et al., 2014]) prior to incubation (floating on peptide/dye solution) for the indicated time. In some experiments FAM–Y-flg22 was used with results similar to FAM–flg22.
For experiments with mixed peptides, leaf discs were floated for the indicated time on 2 μM FAM–flg22, FAM–scrambled peptide or fluorescein mixed with 1 μM TAMRA–flg22. In all experiments, leaf discs were washed after treatment by gently shaking for several minutes in water and the abaxial side was imaged by confocal or epifluorescence microscopy (see ‘Microscopy’). Fluorescence intensity profiles were generated with ImageJ, as in [Spallek et al., (2013)] and [Bozkurt et al. (2015)] (see ‘Data analysis’).
Confocal images were obtained using a Zeiss LSM710 laser-scanning confocal microscope (Zeiss, Germany) as described in [Kang et al. (2014)]. Fluorescence was visualized as follows: GFP/FAM/fluorescein/BCECF excitation (ex) 488 nm/emission (em) 495–545 nm; TAMRA ex 561 nm/em 566–620 nm; FM4-64: ex 561 nm/em 686–758 nm. Green and red fluorescence was acquired for the same field using a sequential acquisition mode.
Fluorescence intensity profiles were generated with ImageJ (http://rsb.info.nih.gov/ij, last accessed 6 April 2017) using RGB Profiler and Color Profiler. Fluorescent puncta were manually counted in 20 μm × 20 μm confocal image areas as in [Irani et al. (2012)] and [Chaparro-Garcia et al., (2015)] and shown as a fraction ([Irani et al., 2012]; [Choi et al., 2013]). […]

Arabidopsis plants [2] = experiment: Long-distance transport after surface application of radiolabeled peptide; type: in vivo, Arabidopsis thaliana; conditions: control; 1 μl droplet of Na125I (1 × 10^6 cpm) on abaxial side of one leaf; 3 h; five plants, three experiments, P=0.7
Experimental: We applied 0.5–1 µM (specific activity 17 µCi µg^–1) ^125I-Y-flg22 or ^125I-Y-scrambled peptide in 10 mM MES pH 5.7 with 0.01% Tween-20 as a 1 µl droplet to the abaxial side of one mature leaf of 4-week-old soil-grown Arabidopsis plants and incubated for 3 h. For the control, 1 µl of 1.8 µM Na^125I (2.2 µCi µg^–1) in 5 mM NaOH–0.5 mM NaHSO2 (to prevent volatilization) with 0.005% Tween-20 was applied in the same way. Whole plants were sealed in plastic (Pinnacle Cover-All, Total Care), additionally contained in a plastic bag, and exposed for 5 d to phosphor screens for autoradiography.
as §1

Arabidopsis plants [3] = experiment: Long-distance transport to distal tissues after infiltration of fluorescent peptide; type: in vivo, Arabidopsis thaliana; conditions: for detection within cells in distal part of infiltrated leaf: 10 μM infiltrated, 2 h, confocal microscopy
Experimental: A 5–10 μM water solution of FAM–flg22 was pressure infiltrated with a 1 ml blunt syringe into a part or all of one leaf of 4-week-old soil-grown plants and distal tissues were examined by epifluorescence and confocal microscopy after 2 and 16 h, respectively. FAM–Y-flg22 was used in some experiments with similar results.
as §1

[4] = system: detached Arabidopsis leaf; experiment: Movement across a leaf blade; conditions: 1 h, epifluorescence
Experimental: A 5 μl drop of water solution of 10 μM FAM–flg22 or FAM–scrambled peptide was placed on the abaxial side of a detached Arabidopsis leaf in a humid chamber. […] Excess peptide was removed after 0.5 h, leaf surface was washed with water and epifluorescence images of the adaxial side were taken during the next 30 min (0.5–1 h after treatment).
The amount of peptide in plant cells was measured as total fluorescence per view field (integrated density) as in [Martins et al. (2015)], and was quantified with ImageJ in each channel in confocal and epifluorescence images. To allow comparison between experiments, fluorescence was calculated as a percentage of the signal in Col treated with TAMRA–flg22 or FAM–flg22. ^125I radioactivity in local and distal tissues was quantified from autoradiographs using a Cyclone Phosphorimager (Perkin Elmer) or in a scintillation counter (Packard Quantum Cobra D5002) and shown as percentage of total radioactivity in a plant. [^14C]sucrose radioactivity was quantified in a scintillation counter. Data from multiple experiments were analysed together using Prism software (GraphPad) (one-way ANOVA followed by Tukey’s test, or the t-test).

[5] = Ws (lacks FLS2) leaf discs floated on 2 μM peptide 1–2 h, 16 picture areas (20 μm × 20 μm), confocal
[6] = Ws/FLS2–GFP leaf discs floated on 2 μM peptide 1–2 h, 16 picture areas (20 μm × 20 μm), confocal
[7] = Col leaf discs, 5–10 μM peptide with FM4-64 (6–8 μM), 1–2 h, confocal
[8] = fls2 leaf discs, 5–10 μM peptide with FM4-64, 1–2 h, confocal

CC(C)C[C@@H](C=O)NC(=O)[C@H](CC(C)C)NC(=O)[C@H](CC(C)C)NC(=O)OCc1ccccc1 [MG132, reference compound] (Cbz-Leu-Leu-Leu-aldehyde)
effect of inhibitor on long-distance movement of TAMRA–flg22 (Arabidopsis plants [1]; Col, 5 μM TAMRA–flg22 with 50 μM MG132 or 50 mM BDM on filter paper disc): prevented
effect of inhibitor on initial binding/uptake of TAMRA–flg22 (Arabidopsis leaf discs; Col leaf discs, 5 μM TAMRA–flg22 with 50 μM MG132 or 50 mM BDM added simultaneously, 1–2 h): did not prevent initial peptide binding/uptake
effect of inhibitor on overnight accumulation of TAMRA–flg22 in vacuoles (Arabidopsis leaf discs; Col leaf discs, 1–2 μM TAMRA–flg22 with 50 μM MG132 or 50 mM BDM, overnight): did not accumulate in vacuoles

CC[C@H](C)[C@H](NC(=O)[C@H](CCC(N)=O)NC(=O)[C@H](CC(C)C)NC(=O)CNC(=O)[C@H](C)NC(=O)[C@H](C)NC(=O)[C@H](CC(=O)O)NC(=O)[C@H](CC(=O)O)NC(=O)[C@H](CCCCN)NC(=O)[C@H](C)NC(=O)[C@H](CO)NC(=O)[C@H](CC(N)=O)NC(=O)[C@@H](NC(=O)[C@H](CCCNC(=N)N)NC(=O)[C@H](CO)NC(=O)CNC(=O)[C@@H](NC(=O)[C@H](CO)NC(=O)[C@H](CC(C)C)NC(=O)[C@H](CCCNC(=N)N)NC(=O)[C@H](CCC(N)=O)NC(=O)c1ccc2c(c1)C(=O)OC21c2ccc(N(C)C)cc2Oc2cc(N(C)C)ccc21)[C@@H](C)O)[C@@H](C)CC)C(=O)N[C@@H](C)C(=O)O [TAMRA–flg22] (5TAMRA-QRLSTGSRINSAKDDAAGLQIA-OH)
detection in local (treated) tissue (Arabidopsis plants [1]; Col, 5 μM on filter paper disc on adaxial side of one leaf of in vitro-grown plants, confocal): detected preferentially in the vascular region
detection in distal leaves and flowers (Arabidopsis plants [1]; Col, 5 μM on filter paper disc on one leaf of in vitro-grown plants, confocal): detected
movement to distal organs from mixture of peptides (Arabidopsis plants [1]; WT Col, 5 μM TAMRA–flg22 + 10 μM FAM–scrambled peptide on filter paper disc, confocal, n=6): moved, to a significant extent
overnight accumulation in plant cells (Arabidopsis leaf discs; Col leaf discs, 1 μM peptide with vacuolar dye BCECF (20 μM), overnight, confocal): accumulated in central vacuoles
number of overlapping red and green foci (Arabidopsis leaf discs; [5]): 0
total number of red (Tf22) fluorescent foci (Arabidopsis leaf discs; [5]): 5
number of foci overlapping with FLS2–GFP (Arabidopsis leaf discs; [6]): 143
total number of red (Tf22) fluorescent foci (Arabidopsis leaf discs; [6]): 161
internalization into vesicles (Arabidopsis leaf discs; Ws/FLS2–GFP leaf discs, 2 μM peptide, 1–2 h, confocal): found together in vesicles
initial (up to 1.5 h) uptake/binding (Arabidopsis leaf discs; bak1 versus Col): not highly affected
overnight accumulation in plant cells (Arabidopsis leaf discs; fls2 and bak1 versus Col, leaf discs floated on 1–2 μM peptide overnight, confocal, P<0.0002, n≥7): inhibited
initial (up to 1.5 h) uptake/binding (Arabidopsis leaf discs; fls2 versus Col, P<0.05, n≥6): reduced
fluorescence signal inside cells (Arabidopsis leaf discs; non-transgenic wild-type Ws control or Col fls2, 1–2 h, confocal): No fluorescence signal was observed inside the cells

[125I-].[Na+] [Na^125I]
movement to distal leaves, Col versus fls2 (Arabidopsis plants [2]): the same in Col and fls2

CC[C@H](C)[C@H](NC(=O)[C@H](CCC(N)=O)NC(=O)[C@H](CC(C)C)NC(=O)CNC(=O)[C@H](C)NC(=O)[C@H](C)NC(=O)[C@H](CC(=O)O)NC(=O)[C@H](CC(=O)O)NC(=O)[C@H](CCCCN)NC(=O)[C@H](C)NC(=O)[C@H](CO)NC(=O)[C@H](CC(N)=O)NC(=O)[C@@H](NC(=O)[C@H](CCCNC(=N)N)NC(=O)[C@H](CO)NC(=O)CNC(=O)[C@@H](NC(=O)[C@H](CO)NC(=O)[C@H](CC(C)C)NC(=O)[C@H](CCCNC(=N)N)NC(=O)[C@H](CCC(N)=O)NC(=O)c1ccc2c(c1)C(=O)OC21c2ccc(O)cc2Oc2cc(O)ccc21)[C@@H](C)O)[C@@H](C)CC)C(=O)N[C@@H](C)C(=O)O [FAM–flg22] (5FAM-QRLSTGSRINSAKDDAAGLQIA-OH)
detection within cells in distal part of infiltrated leaf (Arabidopsis plants [3]; Col): present within vascular cells
detection in distal orthostichous leaves (Arabidopsis plants [3]; Col, 5–10 μM infiltrated into part of one leaf of soil-grown plants, 16 h, epifluorescence): detected
detection within cells in distal part of infiltrated leaf (Arabidopsis plants [3]; fls2): not detected within cells
detection in distal leaves (Arabidopsis plants [3]; fls2, 5–10 μM infiltrated into one leaf, 16 h, epifluorescence): not observed
number of foci overlapping with FM4-64 (Arabidopsis leaf discs; [7]): 212
total number of green (Ff22) fluorescent foci (Arabidopsis leaf discs; [7]): 217
co-localization with endocytic dye FM4-64 (Arabidopsis leaf discs; Col leaves, 5–10 μM peptide, 1–2 h incubation, confocal): co-localized with a subset of vesicles and MVBs
number of foci overlapping with FM4-64 (Arabidopsis leaf discs; [8]): 2
total number of green (Ff22) fluorescent foci (Arabidopsis leaf discs; [8]): 10
signal in cells (Arabidopsis leaf discs; fls2 mutant, 5–10 μM peptide, 1–2 h incubation, confocal): not visible
detection on adaxial side of leaf after application to abaxial side ([4]; Col detached leaf, 5 μl drop of 10 μM peptide, three experiments, n≥5): detected
mobility across a leaf blade ([4]; fls2 and bak1 mutants, 10 μM peptide drop): reduced

CC[C@H](C)[C@H](NC(=O)CNC(=O)c1ccc2c(c1)C(=O)OC21c2ccc(O)cc2Oc2cc(O)ccc21)C(=O)N[C@H](C(=O)N[C@@H](C)C(=O)N[C@@H](CO)C(=O)N[C@@H](CCCCN)C(=O)N[C@@H](C)C(=O)N[C@@H](CC(C)C)C(=O)NCC(=O)N[C@@H](C)C(=O)N[C@@H](CC(=O)O)C(=O)N[C@@H](CC(C)C)C(=O)N[C@@H](CCCNC(=N)N)C(=O)N[C@@H](CCCNC(=N)N)C(=O)N[C@H](C(=O)N[C@@H](CC(N)=O)C(=O)N[C@@H](CCC(N)=O)C(=O)N[C@@H](CO)C(=O)N[C@@H](C)C(=O)N[C@@H](CO)C(=O)N[C@@H](CCC(N)=O)C(=O)N[C@@H](CC(=O)O)C(=O)O)[C@@H](C)CC)[C@@H](C)O [FAM–scrambled peptide] (5FAM-GITASKALGADLRRINQSASQD-OH)
detection within cells in distal part of infiltrated leaf (Arabidopsis plants [3]; Col): not detected within cells
non-specific uptake in presence of active flg22 (Arabidopsis leaf discs; confocal): not observed

O=C1OC2(c3ccc(O)cc3Oc3cc(O)ccc32)c2ccccc21 [fluorescein, reference compound]
non-specific uptake in presence of active flg22 (Arabidopsis leaf discs; confocal): did not induce uptake
